Experimental data from US20240075157A1 (MAGENTA THERAPEUTICS, published 2024).

Columns and labels:
[1] = target: T1, hFcγR3A 176V (human, UniProt P08637 17-208, tagged with biotin or histidine (which one is not stated for this receptor)); experiment: BLI
[2] = target: T2, hFcγR2B (human, UniProt P31994 46-217, tagged with biotin or histidine (which one is not stated for this receptor)); experiment: BLI
T2 sequence (looked up): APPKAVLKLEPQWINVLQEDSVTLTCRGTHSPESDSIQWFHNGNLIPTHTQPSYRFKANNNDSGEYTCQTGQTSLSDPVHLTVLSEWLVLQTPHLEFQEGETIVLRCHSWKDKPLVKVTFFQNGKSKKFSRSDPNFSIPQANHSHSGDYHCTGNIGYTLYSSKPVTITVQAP

[3] = target: T2, hFcγR2B; experiment: BLI, Bio-hFcR2B
Description: (§1) To identify Fc modifications that abrogate Fc gamma receptor binding and thereby silence antibody effector functions, IgG antibodies containing one or more amino acid substitution in the Fc region were assessed in an Octet binding assay to measure their ability to bind to different Fc gamma receptors.
(§2) The binding assays were performed at 25° C. in phosphate buffered saline with (0.1% BSA, 0.02% Tween-20) using Bio-Layer Interferometry Device (ForteBio).

[4] = target: T1, hFcγR3A 176V; experiment: BLI, Bio-hFcR3A 176V
Description: as §1, §2

T1 sequence (P08637 17-208 F176V limits assumed): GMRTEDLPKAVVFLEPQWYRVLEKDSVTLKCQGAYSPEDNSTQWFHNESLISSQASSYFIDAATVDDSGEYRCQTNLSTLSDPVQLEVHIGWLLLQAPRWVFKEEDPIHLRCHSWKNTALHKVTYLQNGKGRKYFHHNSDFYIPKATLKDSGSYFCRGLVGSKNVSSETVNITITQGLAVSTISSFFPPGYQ

binding result [1]: no binding (tested: 300 nM)
binding result [2]: no binding (tested: 300 nM)
Normalized Response [3]: 4 % of WT
Normalized Response [4]: 1 % of WT
B1: Ab2 D265C N297Q H435A (antibody, human IgG1, kappa, N297Q)
heavy: EVQLVQSGAEVKKPGESLKISCKGSGYSFTNYWIGWVRQMPGKGLEWMAIINPRDSDTRYRPSFQGQVTISADKSISTAYLQWSSLKASDTAMYYCARHGRGYEGYEGAFDIWGQGTLVTVSSASTKGPSVFPLAPSSKSTSGGTAALGCLVKDYFPEPVTVSWNSGALTSGVHTFPAVLQSSGLYSLSSVVTVPSSSLGTQTYICNVNHKPSNTKVDKKVEPKSCDKTHTCPPCPAPELLGGPSVFLFPPKPKDTLMISRTPEVTCVVVCVSHEDPEVKFNWYVDGVEVHNAKTKPREEQYQSTYRVVSVLTVLHQDWLNGKEYKCKVSNKALPAPIEKTISKAKGQPREPQVYTLPPSRDELTKNQVSLTCLVKGFYPSDIAVEWESNGQPENNYKTTPPVLDSDGSFFLYSKLTVDKSRWQQGNVFSCSVMHEALHNAYTQKSLSLSPGK
light: not shown
notes: copies: 2 + 2
